Drawing on PMC9356269, “A purified energy-converting hydrogenase from Thermoanaerobacter kivui demonstrates coupled H^+-translocation and reduction in vitro” (The Journal of Biological Chemistry, 2022), this text covers stoichiometry N, IC50 and Km for Fd of the H2:Fd oxidoreductase reaction of purified Ech2 (0 to 90 μM Fd) for three molecules.

Assay [1] concerns the target Ech2 complex (energy-converting hydrogenase 2) of T. kivui, His-tagged on Ech2C (Thermoanaerobacter kivui). Description: native gel or EMSA; purified Ech2 on nondenaturing PAGE with size standards, Coomassie stain and in-gel hydrogenase activity assay; bands of about 230, 450 and 520 kDa, only the 450 and 520 kDa bands active.
Assay [2] has as its target T1, Ech2 complex (energy-converting hydrogenase Ech2) (Thermoanaerobacter kivui, UniProt A0A097ATF1+A0A097ATH3+A0A097ATI1).
T1 construct: gene ech2A1; eight-subunit complex from T. kivui membranes (DDM), plasmid-encoded Ech2C with C-terminal 10x His tag, other subunits native; predicted monomer 248 kDa, active bands ~450 and ~520 kDa (dimer); with Energy-converting hydrogenase Ech2 subunit Ech2C; Energy-converting hydrogenase Ech2 subunit Ech2D; Energy-converting hydrogenase Ech2 subunit Ech2E; Energy-converting hydrogenase Ech2 subunit Ech2F; HycB2 (4Fe-4S ferredoxin-type subunit)
Description: Fd2-:H+ oxidoreductase activity, H2 by gas chromatography. As to conditions: read-out: 50% inhibition. It counts as biochemical.

Assay [3] deals with Ech2 complex (energy-converting hydrogenase 2) of T. kivui, His-tagged on Ech2C (Thermoanaerobacter kivui).

The molecule “Ech2 complex (energy-converting hydrogenase 2) of T. kivui, His-tagged on Ech2C, A0A097ATI1 1-625; A0A097ATF1 1-380; A0A097ATH3 1-311; A0A097ATJ2 1-141; A0A097ATJ6 1-120; A0A097ATH9 1-364; A0A097ATH4 1-156; A0A097ATH8 1-132” registered a stoichiometry N in assay [1] of 2.
On to `C(=NC1CCCCC1)=NC1CCCCC1` [DCCD], for which the IC50 in assay [2] was 9.9 ± 0.4 µM.

B1: ferredoxin (Fd) isolated from Clostridium pasteurianum (natural protein)
chain: MAYKIADSCVSCGACASECPVNAISQGDSIFVIDADTCIDCGNCANVCPVGAPVQE
For B1, the Km for Fd of the H2:Fd oxidoreductase reaction of purified Ech2 (0 to 90 μM Fd) in assay [3] was 17.8 µM.

What is called stoichiometry N is the number of molecules, sites or subunits per partner or assembly.
